Measurements reported in patent US20110034670A1.
Values belong to the substance of their own block, whether it stands above or below them.

Legend:
Src tyrosine kinase [1] = assay: radioactive Src kinase assay, catalytic activity inhibition
Lck [2] = assay: steady-state kinetics, radioactive kinase assay; ATP-binding site
Src tyrosine kinase [3] = assay: as above
Lck [4] = assay: steady-state kinetics, ATP-binding site, after UV exposure
Src tyrosine kinase [5] = assay: steady-state kinetics, radioactive kinase assay; ATP-binding site of Src
Src tyrosine kinase [6] = assay: steady-state kinetics, Ki against Km of ATP
Lck [7] = assay: steady-state kinetics, radioactive kinase assay
Lck [8] = assay: steady-state kinetics, radioactive kinase assay; ATP-binding site of Lck

Lck, sequence (D3DPP8 whole entry): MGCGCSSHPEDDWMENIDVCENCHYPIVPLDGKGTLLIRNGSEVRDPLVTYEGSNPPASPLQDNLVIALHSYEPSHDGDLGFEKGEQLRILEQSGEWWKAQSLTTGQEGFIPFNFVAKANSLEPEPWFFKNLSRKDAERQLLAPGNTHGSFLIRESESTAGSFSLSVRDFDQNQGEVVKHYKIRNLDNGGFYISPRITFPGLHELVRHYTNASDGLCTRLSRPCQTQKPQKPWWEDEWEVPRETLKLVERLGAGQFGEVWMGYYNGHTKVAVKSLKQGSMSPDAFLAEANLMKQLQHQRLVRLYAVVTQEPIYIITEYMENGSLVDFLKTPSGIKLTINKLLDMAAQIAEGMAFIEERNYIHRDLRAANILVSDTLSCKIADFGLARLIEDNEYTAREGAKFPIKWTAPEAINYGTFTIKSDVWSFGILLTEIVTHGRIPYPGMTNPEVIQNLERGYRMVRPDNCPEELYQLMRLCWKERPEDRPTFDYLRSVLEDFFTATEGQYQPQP

Ki (Src tyrosine kinase [1]): 608 µM
Substance: H2N-1,13-Trioxa-Suc-pTyr-Glu-Glu-Ile-OH (16) (peptide)

Ki (Lck [2]): 30 µM | Ki (Src tyrosine kinase [3]): 2.7 µM | Ki (Lck [4]): 29.8 µM | Ki (Src tyrosine kinase [5]): 1.7 to 2.6 µM
Substance: ATP-1,13-Trioxa-SA-pTyr-γ-p-azidoGlu-Glu-Ile-OH (7) (peptide)

fold more potent than ATP alone (Src tyrosine kinase [6]): 44 fold | fold better binding affinity than ATP (Lck [7]): 3.9 fold | Ki (Lck [8]): 25.3 µM
Substance: ATP-1,13-Trioxa-Suc-pTyr-Glu-Glu-Ile-OH (5) (peptide)
